Test results from the nanobody polyreactivity screen of Harvey et al. (2022).

Assay: yeast display, Sf9 membrane polyspecificity reagent, FACS + sequencing; frameworks hold sequencing errors
Outline: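 Genes from sorted yeast were amplified by colony PCR, read by MiSeq 2 × 250 sequencing and filtered on CDR length. These cells carried a synthetic nanobody library in Saccharomyces cerevisiae BJ5465 and were sorted by FACS into low and high (top ~1%) gates on anti-HA and streptavidin fluorescence. Polyreactivity is labelled according to the gate of origin.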

Sequence	polyreactivity (PSR sort gate)
QVHLVESGGGLVQAGGSLRLSGAASGRIFFSNAMGWYRQAPGKEWELVAAISTSGGSTYYADSVKGRFTISRENAKNTVYLQMNSLKPEDTAVYYCNAVYYTSYSGYHFVYEYDYWGQGTQVTVSS	low polyreactivity
QVQLVESGGGLVQAGGSLRLSCAASGRIVANAMGWYRQAPGKESELVAAITATYYADSVKGRFTISRDNAKNTVYLQMNSLKPEDTAVYYFNAYLSPKQPLSPPDPSFEGGYWGQGTQVTVSS	low polyreactivity
QVQLVESGGGLVQAGGSLRLSCAASGLTFKRYAMGWYRQAPGKERELVASITGNGGSTYYADSVKGRFTISRDNAKNTVYLQMNSLKPEDTAVYYCNARRYVRTSQQPLYDYWGQGTQVTVSS	high polyreactivity
QVQLVKSGGGLVQAGGSLRLICAASGSIFGYNTMGWYRQAPGKERELVATITYRGGSTYYADSVKGRFTISRDNAKNTVYLQMNSLKPEDTAVYYCARRVTRYPYTTWVSAGDYWGQGTQVTVSS	high polyreactivity
QVQLVESGGGLVQAGGSLRLSCAASGRIFYRYAMGWYRQAPGKERELVAAISGSVGSTYADSVKGRFTISRDNAKNTVYLQMNSLKPEDTAVYYCARETYRRYGAYDYWGQGTQVTVSS	low polyreactivity
QVQLVESGGGLVQAGRSLRLSCAASGRIFRVNAMGWYRQAPRKERQLVAAISVRGGSTYYADSVKGRFTISRDNAKNTVYLQMNSLKPEDTAVYYCAAPLVYFTPRYDYWGQGTQVTVSS	high polyreactivity
QVQLVESGGGLVQAGGSLRLSCAASGRTFARNAMGWYRQAPGKERELVAAITSIGTRTYYADSVKARFTISRDNAMNTVYLQMNSLKREDTAVYYCNKKRTADYDYWGQGTQVTVSS	low polyreactivity
QVQLVESGGGLVQAGGSLRLSCAASGNTLDWYAMGWYRQAPGKERELVAAISSAGSTSYADSVKGRFTISRDNAKNTVYLQMNSLKPEDTAVYYCNVDVYSKDANFQSFASEYDYWGQGTQVTVSS	low polyreactivity
QVQLVESGGGLVQAGGSLRLSCAASGFTCTYYAMGWYRQAPGKERELVAAITRGGITNYADSVKGRFTISRDNAKNTVYLQMNSLKPEDTAVYYCAADYWNFNWRYKLYRPYDYWGQGTQVTVSS	high polyreactivity
QVHLVESGGGLVQAGGSLRLSCAASGRTYDYYAMGWYRQAHGKERELVAAIRLISGNTYYADSVKGRFTISRDNAKNTVYLQMNSLKPEDTAVYYCARQGYVLYYYWGQGTQVTVSS	low polyreactivity
KVQLVESGGGLVQAGGSLLLSCAASVSNYTLNAMGWYRQAPGKERVLVAAISLSGGSTYYADSVKGRFTISRDNAKNTVYLQMNSLKPEDTAVYYCNTPPSRYVRYGIYRYDYWGQGTQVTVSS	high polyreactivity
QVQLVESGGGLVQAGGSLRLSCAASGGIFTDYTMGWYRQAPGKERELVAAITWTGGSTYYADSVKGRFTISRDNAKNSVYLQMNSLKPEDTAVYYCAADEYWVNLDYWGQGTQVTVSS	low polyreactivity
QVQLEESGGGLVQAGGSLRLSCAASGSTFRYYVMGWYRPAPGKERYLVAAITSSGSTNYADSVKGRFTISRDNAKNTVYLQMNSLKPEDTAVYYCAAVYRDRSQKKRIFYYWGQGTQVTVSS	high polyreactivity
QDQHVESGGGLVQAGGSLRLICAASGINFDYYNMGWYRQAPGKERELVATISSGGTSTFYADSVKGRFTISRDNAKNTVYLQMNSLKPDDSAVYYCAKDRPGWVHRRPSGGFDYWGQGTQVTVSS	low polyreactivity
QVQLVESGGGLVQAGGSLRLSCAASGITFGTYAMGWYRQATGKERELVDAITRGGRTYYADSVKGRFTISRDNDKNTVYLQMYSLKPEDTAVYYCNAYVLRRYGWRSGDDYDYWGQGTQVNVSS	high polyreactivity
QVQLVESGGGIVQAGGSLRLSCAASGTFGYAMGWYRQAPGKERELVAAISYSGGSTYYADSVKGRFTISRDNAKNTVYLQMNSLKPEDTAVYYCAARTTLSYGYDYWGQGTQVTVSS	high polyreactivity
QVQLVESGGGLVQAGGSLRLSCAASGFIFNGNAMGWYIQAPGKERELVVAISKSGGRTYYADSVKGRFTISRDNAKYTVYLQMNSLKPEDTAVYDCARRTYTRMYWGQGTQVTVSS	high polyreactivity
QVQLVESGGGLVQAGGSLRLSCAASGFTLAGYDMGWYRQAPGKERELVATISTYADSVKGRFTISRDNAKNTVYLQMNSLKPEDTAVYDCAKKYVWTHNYWGQGTQVTVSS	low polyreactivity
QVQLVESGGGLVQAGGSLRLSCAASGSIFFYNTMGWYRQAPGKERELVARISRSGGSTYYADSVKGRFTISRDNAKNTVYLQMNSLKPEDTAVYYCAARSAPWRYRYYKPYYYWGQGTQVTVSS	high polyreactivity
QVQLVESGGGLVQAGGSLRLSCAASGRIFGVYAMGWYRQAPGKERELVAAIDRRGGTTYYADSVKGRFTISRDNAKNTVYLQMNSLKPEDTAVYYCAARSYPFIATYGYWGQGTQVTVSS	high polyreactivity
QVQLVESVGGLVQAGGSLRLSSAASGITFQYYDMGWYRQAPGKERELVAAIDTSGGSTYYADSVKGRFTISRDNEKNTVYLHMNSLKREDTSVYYGAACYYGYSVYGRMYYWGQGTQVTVSS	low polyreactivity
QVQLVESGGGLVQAGGSLRLSCAASGSTFPAYAMGWYRQAPGKERELVAAINTSGGNTYYADSVKGRFTISRDNAKNTVYLQMNSLKPEDTAVYYCAADYKARYSEKFDYWGQGTQVTVSS	low polyreactivity

Sequence	polyreactivity (PSR sort gate)
QVRLVESGGGLVQAGGSLRLSCAASGSTFWSYAMGWYRQAPGKERELVAAISWSGDSTYYADSVKGRFTISRDNAKNTVYLQMNSLKPEDTAVYYCAADYTGSFYTYDYWGQGTQVTVSS	low polyreactivity
QVQLVESGGGLVQAGGSLRLSCASSGRTFTYNAMGWYRQAPGKERELVAVIRYSGGTTYYADSVKGRFTISRDNAKNTVYFQMNRLIPEDTAVYYCAADSWSRSVNYYYWGQGTQVTVSS	low polyreactivity
QVQLVESGGGLVQAGGSLRLSCAASGSTYISYAMGWYRQAPGKERELVAAITVSGGRTYYADSVKGRFTISRDNAKNTVYLQMNSLKPEDTAVYYCARGYARSRRWRFDYWGQGTQVTVSS	high polyreactivity
QVQLVESGGGLVQAGGSLRLSCAASGSPVSRYALGWYRQAPGKERELVAAFSWGGNTYYADSVKGRFTISRDNAKNTVYLQMKSLKPEDTAVYYCNRYSKLYNTMDYWGQGTQVTVSS	high polyreactivity
QVQLVESGGGLVQAGGSLRLSCAASGITFVKNAMGWYRQAPGKERELVARIRIGGSTSYADSVKGRFTISRDNAKNTVYLQRNSLKPEDNAVYYCARYAGRLSYRYEYWGQGTQVTVSS	high polyreactivity
QVQLVESGGGLVQAGGSLRLSCAATRYTFSHYAMGCYRQAPGKERELVAAMSGSGGNTYYADSVKGRFTISRDHAKNTVYLQMNSLKPEDTAVYYCNADNEYRLGYWDDSWVQGTQVTVSS	low polyreactivity
QVQLVESGGGLVQAGGSLRLSCAASGRIISRYAMGWYRQAPGKERELVAAISRRGGSTYYADSVKGRFTISRDNAKKTVYLQMNSLKPEDTAVYYCNADTGNRGYDYWGQGTQVTVSS	high polyreactivity
QVQLVESGVGLVQAGGSLRLSCAAAGYIFFFYAMGWYRQAPGKERELVASITYRGGSTYYADSVKGRFTISRDNAKNTVYLHMNSLKPEDTAVYYCNVDGGGPLGPQGFPFDYWGQGTQVTVSS	low polyreactivity
QVQLVESGGGLVQAGGSLRLSCAASGSTFQFYAMGWYRQAPGKEREFVAAIDFGGAGTYYADSVKGRFTISRDTAKNTVYLQMNSLKPEDTAVYYCNARDGVTSEFDYWGQGTQVTVSS	low polyreactivity
QVQLVESGGGLVQAGGSLRLSCAASGSIFVRNAMGWYRQSPGKERELVAAITSGDSTNYADSVKGRFTISRDNAKNTVYLQMYCLKPEDTAVYYCNAQIYSVYRDGRDIYKYDYWGQGTQVTVSS	low polyreactivity
QVQLVESGGGLVQAGGSLRLSCAASGSTFGRYVMGWYRQAPGKERELVAAISKNAGSTYYADSVKGRFTISRDNAKNTVYLQMNRLKPEDTAVYYCAADWRTKGYDSLGQGTQVTVSS	high polyreactivity
QVQLVESGGGLVHAGGSLRLSCAASGSIFRPYAMGWYRQAPGKERELVAAISRRGGSTYYADSVKGRFTISRDNAKNTVYLQLISLKPEDTAVYYCAADHSGPSPYGYGYWGQGTQVTVSS	high polyreactivity
QVQLVESGGGLVQAGGSLRLIGAASGRSLYVYEMGWYRQAPGNDRELVAAISRGGGRTYYADSVKRRFTISRDKAKNTVYVQRNSLKPEDTAVYYGAAPLLIGVSTYRIAPRSGYWGQGTQVTLSS	high polyreactivity
QVQLVESGGGLVQAGGSLRLSCAASGRTFTQYAMGWYRQAPGKEREMVAAISWRGGSTYYADSVKGRFTISRDNAKNTVYVQMNSLKPEDTAVSYCAKRYFRGYPLYDYWGQGTQVTVSS	high polyreactivity
QVQLVESGGGLVQAGGSLRLSCAASGSIFWQYAMGWYRQAPGKERELVAAINWSGDTTYYADSVKGRFTISRDNAKNTVYLQMNSLKPEDTAVYFCAAVGGVSYGGSPKTHAGEDYWGQGTQVTVSS	low polyreactivity
QVQLVESGGGLVQAGGSLRLSCAASGVIFYFNALGWYRQAPGKERELVAAISGGDNTYYADSVKGRFTISRDNAKNTVYLQMNSLKPEDTAVYYCAAKYRYGQNGYYLYGYWGQGTQVTVSS	low polyreactivity
QVQLVESGGGLVQAGGSLRLSCAASGSTFAYYAMGWYRQAPGKERELVAAIDDTGSTNYADSVKGRFTISRDNAKYTVFLQMNSLKPEYTAVYYCNAQPDGTYDYWGQGTQVTVSS	low polyreactivity
QVQLVESGGGLVQAGGSLRLSCAASGIIFYPYAMGWYRQAPGKERELVAAISTSGGRTYYADSVKGRFTISRDNAKNTVYLQMNSLKPEDTAVYYCAADNSSGDVNGGGYWGQGTQVTVSS	low polyreactivity
QVQLVESGGGLVQAGGSLRLSCAASGSTFSPNAMGWYRQAPGKERELVADIDWSGGGTYYADSVKGRFTISRDNAKNTVYLQMNSLKPEDTAVYYCAAGYVWWPFEYDYWGQGTQVTVSS	high polyreactivity
QVQLVESGGGLVQAGGSLRLSCAASGFIFWPYAMGWYRQAPGKESELVAAITTGGSTNYADSVKGRFTISRDNAKNTVYLQMNSLKPEDTAVYYCAKGYYFGYYEFDYWGQGTQVTVSS	high polyreactivity
QVQLLESGGGLVQAGGSLRLSCAASGYTFQIKAMGWYRQAPGKERELVAAITSGGRTYYADSVKGLFTISRDNAKNTVYLQMNSLKPEDTAVYYCNKVPRRGVDYWGQGTQVTVSS	low polyreactivity
